Experimental data published in article PMC6919976.

Target: ribosomes isolated from wildtype CHO cells (hamster (endogenous in CHO))

rate of phosphorylation of eIF2α (2 µM) by GCN2 in vitro, with wildtype ribosomes against none: 10 fold
Substance: GCN2, StrepII-tagged, purified from Sf9 cells (from UniProt Q9P2K8 1-1649) (enzyme)
